Results taken from patent EP1876240B1.
Residue numbers refer to the chain shown, from its start.

B1: F1257-3-1 (antibody, V domains shown)
VH: QVTLKESGPGMLQPSKTLSLTCSFSGFSLSTSGMVVSWIRQPSGKSLEWLAAIDWDGDKYYNPSLKSRLTVSKDTSNTQVFLKISSVDIADTATYYCARTPYYGYKEAYYFDYWGQGVKVTVSS
VL: DIQMTQSPASLSASLEEIVTITCKASRAIDDYLSWYQQKPGKSPQLLIYDATSLADGVPSRFSGSRSGTQYSLKISRPQVDDSGIYYCLQSYSTPWTFGGGTKLDLKR
B2: F1245-6-2 (antibody, V domains shown)
VH: QVQLQQPGAELVKPGASVKLSCKASGYTFTSYWMHWVKQRPGQGLEWIGMIHPNSGSTNYNEKFKSKATLTVDKSSSTAYMQLSSLTSEDSAVYYCARGGVTPVAYWGQGTLVTVSA
VL: SIVMTQTPKFLLVSAGDRVTITCKASQSVSNDVAWYQQKPGQSPKLLIYYASNRYTGVPYRFTGSGYGTDFTFTISTVQAEDLAVYFCQQDYSSPWTFGGGTKLEIK
B3: F1249-20-1 (antibody, V domains shown)
VH: QVQLQQSGAELVRPGVSVKISCKGSGYTFTDYAMHWVKQSHAKSLEWIGVISTYYGDTSYNQKFKGKATMTVDKSSSTAYMELARLTSEDSAIYYCARAEDYDPWFAYWGQGTLVTVSA
VL: DIVLTQSPASLAVSLGQRATISCRASESVDSYGNSFMYWYQQKPGQPPKLLIYRASNLESGIPARFSGSGSRTDFTLTINPVEADDVATYYCQQSDEDPLTFGAGTKLELKR
B4: F1249-24-1 (antibody, V domains shown)
VH: B3 VH
VL: B3 VL with Y38H
B5: F1246-1-1 (antibody, V domains shown)
VH: EVQLVESGGDLVKPGGSLKLSCAASGFTFSSYGMSWVRQTPDKRLEWVATISNGGTYTYYPDSVKGRFTISRDNAKNTLYLQMSSLKSDDTAMYYCGRLRDYYAMDYWGQGTSVTVSS
VL: B3 VL with Y38H, D96N, L100W, A104G, L110I
B6: F1249-30-1 (antibody, V domains shown)
VH: B3 VH with T69A, E89D
VL: B3 VL with Y38H
B7: F1245-7-1 (antibody, V domains shown)
VH: QVQLQQPGAELVKPGASVKLSCKASGYTFTSYWMHWVKQRPGQGLEWIGMIHPNSGSTNYNEKFKSKATLTVDKSSSTAYMQLSSLTSEDSAVYYCASPVTAVVEYYFDYWGQGTTLTVSS
VL: SIVMTQTPKFLLVSAGDRVTITCKASQSVSNDVAWYQQKPGQSPKLLIYYASNRYTGVPDRFTGSGYGTDFTFTISTVQAEDLAVYFCQQDYSSLTFGSGTKLEIKR
B8: F1251-1-1 (antibody, V domains shown)
VH: QVNLLQSGAALVKPGASVKLSCKASGYTFTDYYIHWVKQSHGKSLEWIGYINPNSGYTNYNEKFKSKATLTVDKSTNTAYMELSRLTSEDSATYYCTRCNSGYGDWFAYWGQGTLLTVSS
VL: DIQMTQSPPVLSASVGDRVTLSCKASQNINKNLDWYQQKHGEAPKLLIYYTNNLQTDIPSRFSGSGSGTDYTLTISSLQPEDVATFYCYQYNSGPGTFGAGTKLELKR
B9: F1249-18-2 (antibody, V domains shown)
VH: QVQLQQPGAELVKPGASVKLSCKASGYTFTSYWMHWLKQRPGQGLEWIGMIHPNSDITNYNEKFKNKATLTVDKSSSTAYMQLSSLTSEDSAVYYCARSGDYYAMDYWGQGTSVTVSS
VL: SIVMTQTPKFLLVSAGDRVTITCKASQSVSNDVAWYQQKPGQSPKLLIYYASNRYTGVPDRFTGSGYGTDFTFTISTVQAEDLAVYFCQQDYSSPPTFGGGTKLEIKR
B10: F1245-4-1 (antibody, V domains shown)
VH: QVQLQQPGAELVKPGASVKLSCKASGCTFTSYWMHWVKQRPGQGLEWIGMIHPNSDNTNYNEKFKSKATLTVDKSSSTAYMHLSSLTSEDSAVYYCATHYYDYVDYWGQGTTLTVSS
VL: B9 VL with S1N, P96W
B11: F1245-5-1 (antibody, V domains shown)
VH: B2 VH with T30I, N59H
VL: B9 VL with P96W
B12: F1249-5-1 (antibody, V domains shown)
VH: B9 VH with D73A, S99L
VL: B9 VL with A34T
B13: F1232-37-2 Fab (Fab, V domains shown)
VH: VQLQQSGPELVRPGESVKISCKGSGYTFTDYAIHWVKLSHAKSLEWIGVISIYYDDTNYNQKFKGKATMTVDKSSSTAYLELARLTSEDSAIYYCARRRDSSGPYAMDYWGQGTSVTVSS
VL: B3 VL with Y38H, D96N, L100Y, A104G, L110I
B14: F1232-37-2 (antibody, V domains shown)
VH: B13 VH
VL: B3 VL with Y38H, D96N, L100Y, A104G, L110I

Biological target: human GPVI extracellular region-human Fc fusion protein (hGPVI-hFc) (human)
Sequence (chain, as listed by the source limits assumed): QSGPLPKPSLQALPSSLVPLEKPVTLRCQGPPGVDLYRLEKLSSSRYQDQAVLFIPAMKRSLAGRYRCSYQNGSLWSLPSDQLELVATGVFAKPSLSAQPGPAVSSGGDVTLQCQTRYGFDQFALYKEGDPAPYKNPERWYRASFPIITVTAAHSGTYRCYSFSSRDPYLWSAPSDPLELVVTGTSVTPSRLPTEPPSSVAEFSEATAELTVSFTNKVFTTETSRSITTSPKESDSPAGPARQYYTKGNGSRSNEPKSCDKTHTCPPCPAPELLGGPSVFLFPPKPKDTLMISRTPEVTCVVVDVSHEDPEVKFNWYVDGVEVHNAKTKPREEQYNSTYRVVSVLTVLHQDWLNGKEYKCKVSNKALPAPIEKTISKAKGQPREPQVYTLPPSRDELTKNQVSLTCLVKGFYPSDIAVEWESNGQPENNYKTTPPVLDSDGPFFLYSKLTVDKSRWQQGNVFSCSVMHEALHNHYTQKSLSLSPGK
Assay: SPR (BIACORE3000) as in Example 5

KD (Relative value) against F1232-37-2 (relative to KD of F1232-37-2)	Binder
0.00298	B1
0.122	B2
0.00205	B3
0.00821	B4
0.884	B5
0.347	B6
0.00293	B7
7.9	B8
0.00103	B9
0.00427	B10
1.43	B11
0.00285	B12

Biological target: human GPVI extracellular region-human Fc fusion protein (hGPVI-hFc) (human)
Assay: SPR (BIACORE 3000), hGPVI-hFc on CM5 chip, 0-800 nM, 1:1 binding fit

dissociation constant relative to whole antibody (defined as one) (relative to KD of whole F1232-37-2)	Binder
0.6	B13

Biological target: human GPVI extracellular region-human Fc fusion protein (hGPVI-hFc) (human)
Assay: ELISA on immobilised hGPVI-hFc; + absorbance 0.5 to 1.0

absorbance [od]	Binder
0.5 to 1	B8

Biological target: human GPVI extracellular region-human Fc fusion protein (hGPVI-hFc) (human)
Assay: ELISA on immobilised hGPVI-hFc; ++ absorbance 1.0 to 2.0

absorbance [od]	Binder
1 to 2	B2
1 to 2	B5
1 to 2	B7
1 to 2	B11
1 to 2	B12

Biological target: human GPVI extracellular region-human Fc fusion protein (hGPVI-hFc) (human)
Assay: ELISA on immobilised hGPVI-hFc; +++ absorbance more than 2.0

absorbance [od]	Binder
> 2	B1
> 2	B3
> 2	B4
> 2	B6
> 2	B9
> 2	B10

Biological target: rat GPVI-human Fc (rGPVI-hFc) (rat; mouse)
Assay: ELISA on immobilized antigen; control

absorbance (ELISA)	Binder
0.137	B14
